Assay results as given in US20150203577A1 (Chugai, published 2015).

T1: mouse FcγRII extracellular domain with C-terminal His tag (mouse, UniProt P08101 30-210)
T1 construct: Made on the basis of NCBI NP-034317.1; also called mFcγRII; mFcgRII
T1 sequence: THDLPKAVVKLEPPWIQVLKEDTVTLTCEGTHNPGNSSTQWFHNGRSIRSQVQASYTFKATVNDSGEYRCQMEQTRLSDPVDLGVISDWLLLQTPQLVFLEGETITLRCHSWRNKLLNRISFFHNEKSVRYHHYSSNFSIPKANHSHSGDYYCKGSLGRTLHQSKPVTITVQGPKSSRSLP

T2: mouse FcγRIII extracellular domain with C-terminal His tag (mouse, UniProt P08508 31-215)
T2 construct: Made on the basis of NCBI NP-034318.2; also called mFcγRIII; mFcgRIII
T2 chain: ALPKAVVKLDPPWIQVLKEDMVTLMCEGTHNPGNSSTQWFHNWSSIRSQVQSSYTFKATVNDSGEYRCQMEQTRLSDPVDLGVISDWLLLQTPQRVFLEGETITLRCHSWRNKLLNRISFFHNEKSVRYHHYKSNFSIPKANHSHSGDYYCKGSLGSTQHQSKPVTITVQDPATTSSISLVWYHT


Key:
[1] = target: T1, mouse FcγRII extracellular domain with …; assay: SPR Biacore T200
[2] = target: T2, mouse FcγRIII extracellular domain with …; assay: SPR Biacore T200
[3] = target: T1, mouse FcγRII extracellular domain with …; assay: SPR Biacore T200; KD mFcγRIII / KD mFcγRII

| Binder | relative mFcγRII-binding activity (mIgG1 = 1) [1] | relative mFcγRIII-binding activity (mIgG1 = 1) [2] | relative I/A (mFcγRII selectivity) (mIgG1 = 1) [3] |
| --- | --- | --- | --- |
| H237-MB407/MRAL-k0 (antibody, mouse IgG1, kappa, copies: 2 + 2) heavy: QVQLQESGPGLVKPSETLSLTCAVSGHSISHDHAWSWVRQPPGEGLEWIGFISYSGITNYNPSLQGRVTISRDNSKNTLYLQMNSLRAEDTAVYYCARSLARTTAMDYWGEGTLVTVSSAKTTPPSVYPLAPGSAAQTNSMVTLGCLVKGYFPEPVTVTWNSGSLSSGVHTFPAVLQSDLYTLSSSVTVPSSTWPSETVTCNVAHPASSTKVDKKIVPRDCGCKPCICQAYEVEDVFIFPPKPKDVLTITLTPKVTCVVVDISKDDPEVQFSWFVDDVEVHTAQTQPREEQFNSTFRSVSELPIMHQDWLNGKEFKCRVNSAAFPAPIEKTISKTKGRPKAPQVYTIPPPKEQMAKDKVSLTCMITDFFPEDITVEWQWNGQPAENYKNTQPIMDTDGSYFVYSKLNVQKSNWEAGNTFTCSVLHEGLHNHHTEKSLSHSPGK light: not shown | 164 | 9.8 | 16.9 |
| H237-MB408/MRAL-k0 (antibody, mouse IgG1, kappa, copies: 2 + 2) heavy: QVQLQESGPGLVKPSETLSLTCAVSGHSISHDHAWSWVRQPPGEGLEWIGFISYSGITNYNPSLQGRVTISRDNSKNTLYLQMNSLRAEDTAVYYCARSLARTTAMDYWGEGTLVTVSSAKTTPPSVYPLAPGSAAQTNSMVTLGCLVKGYFPEPVTVTWNSGSLSSGVHTFPAVLQSDLYTLSSSVTVPSSTWPSETVTCNVAHPASSTKVDKKIVPRDCGCKPCICTAYEVEDVFIFPPKPKDVLTITLTPKVTCVVVDISKDDPEVQFSWFVDDVEVHTAQTQPREEQFNSTFRSVSELPIMHQDWLNGKEFKCRVNSAAFPAPIEKTISKTKGRPKAPQVYTIPPPKEQMAKDKVSLTCMITDFFPEDITVEWQWNGQPAENYKNTQPIMDTDGSYFVYSKLNVQKSNWEAGNTFTCSVLHEGLHNHHTEKSLSHSPGK light: not shown | 163 | 13.1 | 12.5 |
| H237-MB409/MRAL-k0 (antibody, mouse IgG1, kappa, copies: 2 + 2) heavy: QVQLQESGPGLVKPSETLSLTCAVSGHSISHDHAWSWVRQPPGEGLEWIGFISYSGITNYNPSLQGRVTISRDNSKNTLYLQMNSLRAEDTAVYYCARSLARTTAMDYWGEGTLVTVSSAKTTPPSVYPLAPGSAAQTNSMVTLGCLVKGYFPEPVTVTWNSGSLSSGVHTFPAVLQSDLYTLSSSVTVPSSTWPSETVTCNVAHPASSTKVDKKIVPRDCGCKPCICDVYEVEDVFIFPPKPKDVLTITLTPKVTCVVVDISKDDPEVQFSWFVDDVEVHTAQTQPREEQFNSTFRSVSELPIMHQDWLNGKEFKCRVNSAAFPAPIEKTISKTKGRPKAPQVYTIPPPKEQMAKDKVSLTCMITDFFPEDITVEWQWNGQPAENYKNTQPIMDTDGSYFVYSKLNVQKSNWEAGNTFTCSVLHEGLHNHHTEKSLSHSPGK light: not shown | 192 | 10.7 | 18 |
| H237-MB411/MRAL-k0 (antibody, mouse IgG1, kappa, copies: 2 + 2) heavy: QVQLQESGPGLVKPSETLSLTCAVSGHSISHDHAWSWVRQPPGEGLEWIGFISYSGITNYNPSLQGRVTISRDNSKNTLYLQMNSLRAEDTAVYYCARSLARTTAMDYWGEGTLVTVSSAKTTPPSVYPLAPGSAAQTNSMVTLGCLVKGYFPEPVTVTWNSGSLSSGVHTFPAVLQSDLYTLSSSVTVPSSTWPSETVTCNVAHPASSTKVDKKIVPRDCGCKPCICPVYEVEDVFIFPPKPKDVLTITLTPKVTCVVVDISKDDPEVQFSWFVDDVEVHTAQTQPREEQFNSTFRSVSELPIMHQDWLNGKEFKCRVNSAAFPAPIEKTISKTKGRPKAPQVYTIPPPKEQMAKDKVSLTCMITDFFPEDITVEWQWNGQPAENYKNTQPIMDTDGSYFVYSKLNVQKSNWEAGNTFTCSVLHEGLHNHHTEKSLSHSPGK light: not shown | 132 | 8.1 | 16.4 |
| H237-MB412/MRAL-k0 (antibody, mouse IgG1, kappa, copies: 2 + 2) heavy: QVQLQESGPGLVKPSETLSLTCAVSGHSISHDHAWSWVRQPPGEGLEWIGFISYSGITNYNPSLQGRVTISRDNSKNTLYLQMNSLRAEDTAVYYCARSLARTTAMDYWGEGTLVTVSSAKTTPPSVYPLAPGSAAQTNSMVTLGCLVKGYFPEPVTVTWNSGSLSSGVHTFPAVLQSDLYTLSSSVTVPSSTWPSETVTCNVAHPASSTKVDKKIVPRDCGCKPCICQVYEVEDVFIFPPKPKDVLTITLTPKVTCVVVDISKDDPEVQFSWFVDDVEVHTAQTQPREEQFNSTFRSVSELPIMHQDWLNGKEFKCRVNSAAFPAPIEKTISKTKGRPKAPQVYTIPPPKEQMAKDKVSLTCMITDFFPEDITVEWQWNGQPAENYKNTQPIMDTDGSYFVYSKLNVQKSNWEAGNTFTCSVLHEGLHNHHTEKSLSHSPGK light: not shown | 113 | 8.3 | 13.7 |
| H237-MB413/MRAL-k0 (antibody, mouse IgG1, kappa, copies: 2 + 2) heavy: QVQLQESGPGLVKPSETLSLTCAVSGHSISHDHAWSWVRQPPGEGLEWIGFISYSGITNYNPSLQGRVTISRDNSKNTLYLQMNSLRAEDTAVYYCARSLARTTAMDYWGEGTLVTVSSAKTTPPSVYPLAPGSAAQTNSMVTLGCLVKGYFPEPVTVTWNSGSLSSGVHTFPAVLQSDLYTLSSSVTVPSSTWPSETVTCNVAHPASSTKVDKKIVPRDCGCKPCICTVYEVEDVFIFPPKPKDVLTITLTPKVTCVVVDISKDDPEVQFSWFVDDVEVHTAQTQPREEQFNSTFRSVSELPIMHQDWLNGKEFKCRVNSAAFPAPIEKTISKTKGRPKAPQVYTIPPPKEQMAKDKVSLTCMITDFFPEDITVEWQWNGQPAENYKNTQPIMDTDGSYFVYSKLNVQKSNWEAGNTFTCSVLHEGLHNHHTEKSLSHSPGK light: not shown | 108 | 11.9 | 9.1 |
| H237-MB414/MRAL-k0 (antibody, mouse IgG1, kappa, copies: 2 + 2) heavy: QVQLQESGPGLVKPSETLSLTCAVSGHSISHDHAWSWVRQPPGEGLEWIGFISYSGITNYNPSLQGRVTISRDNSKNTLYLQMNSLRAEDTAVYYCARSLARTTAMDYWGEGTLVTVSSAKTTPPSVYPLAPGSAAQTNSMVTLGCLVKGYFPEPVTVTWNSGSLSSGVHTFPAVLQSDLYTLSSSVTVPSSTWPSETVTCNVAHPASSTKVDKKIVPRDCGCKPCICDDYEVEDVFIFPPKPKDVLTITLTPKVTCVVVDISKDDPEVQFSWFVDDVEVHTAQTQPREEQFNSTFRSVSELPIMHQDWLNGKEFKCRVNSAAFPAPIEKTISKTKGRPKAPQVYTIPPPKEQMAKDKVSLTCMITDFFPEDITVEWQWNGQPAENYKNTQPIMDTDGSYFVYSKLNVQKSNWEAGNTFTCSVLHEGLHNHHTEKSLSHSPGK light: not shown | 189 | 8.1 | 23.6 |
| H237-MB415/MRAL-k0 (antibody, mouse IgG1, kappa, copies: 2 + 2) heavy: QVQLQESGPGLVKPSETLSLTCAVSGHSISHDHAWSWVRQPPGEGLEWIGFISYSGITNYNPSLQGRVTISRDNSKNTLYLQMNSLRAEDTAVYYCARSLARTTAMDYWGEGTLVTVSSAKTTPPSVYPLAPGSAAQTNSMVTLGCLVKGYFPEPVTVTWNSGSLSSGVHTFPAVLQSDLYTLSSSVTVPSSTWPSETVTCNVAHPASSTKVDKKIVPRDCGCKPCICIDYEVEDVFIFPPKPKDVLTITLTPKVTCVVVDISKDDPEVQFSWFVDDVEVHTAQTQPREEQFNSTFRSVSELPIMHQDWLNGKEFKCRVNSAAFPAPIEKTISKTKGRPKAPQVYTIPPPKEQMAKDKVSLTCMITDFFPEDITVEWQWNGQPAENYKNTQPIMDTDGSYFVYSKLNVQKSNWEAGNTFTCSVLHEGLHNHHTEKSLSHSPGK light: not shown | 159 | 9.1 | 17.5 |
| H237-MB416/MRAL-k0 (antibody, mouse IgG1, kappa, copies: 2 + 2) heavy: QVQLQESGPGLVKPSETLSLTCAVSGHSISHDHAWSWVRQPPGEGLEWIGFISYSGITNYNPSLQGRVTISRDNSKNTLYLQMNSLRAEDTAVYYCARSLARTTAMDYWGEGTLVTVSSAKTTPPSVYPLAPGSAAQTNSMVTLGCLVKGYFPEPVTVTWNSGSLSSGVHTFPAVLQSDLYTLSSSVTVPSSTWPSETVTCNVAHPASSTKVDKKIVPRDCGCKPCICPDYEVEDVFIFPPKPKDVLTITLTPKVTCVVVDISKDDPEVQFSWFVDDVEVHTAQTQPREEQFNSTFRSVSELPIMHQDWLNGKEFKCRVNSAAFPAPIEKTISKTKGRPKAPQVYTIPPPKEQMAKDKVSLTCMITDFFPEDITVEWQWNGQPAENYKNTQPIMDTDGSYFVYSKLNVQKSNWEAGNTFTCSVLHEGLHNHHTEKSLSHSPGK light: not shown | 189 | 6.3 | 30.2 |
| H237-MB417/MRAL-k0 (antibody, mouse IgG1, kappa, copies: 2 + 2) heavy: QVQLQESGPGLVKPSETLSLTCAVSGHSISHDHAWSWVRQPPGEGLEWIGFISYSGITNYNPSLQGRVTISRDNSKNTLYLQMNSLRAEDTAVYYCARSLARTTAMDYWGEGTLVTVSSAKTTPPSVYPLAPGSAAQTNSMVTLGCLVKGYFPEPVTVTWNSGSLSSGVHTFPAVLQSDLYTLSSSVTVPSSTWPSETVTCNVAHPASSTKVDKKIVPRDCGCKPCICQDYEVEDVFIFPPKPKDVLTITLTPKVTCVVVDISKDDPEVQFSWFVDDVEVHTAQTQPREEQFNSTFRSVSELPIMHQDWLNGKEFKCRVNSAAFPAPIEKTISKTKGRPKAPQVYTIPPPKEQMAKDKVSLTCMITDFFPEDITVEWQWNGQPAENYKNTQPIMDTDGSYFVYSKLNVQKSNWEAGNTFTCSVLHEGLHNHHTEKSLSHSPGK light: not shown | 190 | 10.7 | 17.8 |
